Laboratory results as given in article PMC10349104.
Values joined by “and” are separate entries in the source; they are usually repeats but may differ in a detail not shown here. Equal entries are not always repeated.

How the values were obtained:
[1] = biological target: EVA-4 (UniProt P0C8E9); experiment: not stated; Kd of EVA-4 for human chemokines, three readings (source data of Supplementary Fig. 7); method and conditions not told for EVA-4
[2] = biological target: EVA-A(Y44A) (Amblyomma americanum); experiment: SPR
[3] = biological target: EVA-A(1-98) (A. americanum); experiment: SPR
[4] = biological target: EVA-A(Y44A) (A. americanum); experiment: SPR
[5] = biological target: EVA-A(DC) (Amblyomma americanum); experiment: SPR
[6] = biological target: EVA-A(C8) (Amblyomma americanum); experiment: SPR
[7] = biological target: EVA-A(DN) (Amblyomma americanum); experiment: SPR
[8] = biological target: EVA-A(21-102) (A. americanum); experiment: SPR
[9] = biological target: EVA-A(L39P) (A. americanum); experiment: SPR
[10] = biological target: EVA-A(C8) (A. americanum); experiment: SPR
[11] = biological target: EVA-A(L39P) (Amblyomma americanum); experiment: SPR

CCL19, sequence (Q99731 22-98): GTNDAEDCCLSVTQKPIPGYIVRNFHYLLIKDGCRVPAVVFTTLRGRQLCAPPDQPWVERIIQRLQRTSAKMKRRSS
CCL4, sequence (P13236 24-92): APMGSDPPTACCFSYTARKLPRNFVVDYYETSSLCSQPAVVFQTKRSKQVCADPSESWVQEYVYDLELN
CCL24, sequence (O00175 27-119): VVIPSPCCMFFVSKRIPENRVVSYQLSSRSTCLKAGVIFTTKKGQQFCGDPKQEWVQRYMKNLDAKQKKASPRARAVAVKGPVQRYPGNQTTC
CCL26, sequence (Q9Y258 24-94): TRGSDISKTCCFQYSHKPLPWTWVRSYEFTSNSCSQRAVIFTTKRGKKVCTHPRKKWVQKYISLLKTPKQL
CCL11, sequence (P51671 24-97): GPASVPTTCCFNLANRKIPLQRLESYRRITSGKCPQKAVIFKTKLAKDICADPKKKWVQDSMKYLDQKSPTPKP
CCL3, sequence (P10147 24-92): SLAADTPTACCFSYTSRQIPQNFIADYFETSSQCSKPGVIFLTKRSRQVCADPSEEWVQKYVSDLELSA
CCL13, Q99616 17-98 (ligand; other documents disagree on this pair), sequence (Q99616 17-98): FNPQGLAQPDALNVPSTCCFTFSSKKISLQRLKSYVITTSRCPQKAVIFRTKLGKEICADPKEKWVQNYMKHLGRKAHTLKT
CCL13, sequence (Q99616 17-98): as above
CCL5, sequence (P13501 24-91): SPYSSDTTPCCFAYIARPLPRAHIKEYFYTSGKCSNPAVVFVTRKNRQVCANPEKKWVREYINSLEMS

Substance	Kd [2]	koff [2]	kon [2]	Kd [3]	koff [3]	kon [3]	Kd [4]	koff [4]	kon [4]	Kd [5]	koff [5]	Kd [6]	Kd [7]	koff [7]	kon [7]	Kd [8]	koff [8]	kon [8]	Kd [9]	koff [9]	other results
CCL13, Q99616 17-98 (ligand; other documents disagree on this pair)	–	–	–	–	–	–	–	–	–	–	–	–	–	–	–	–	–	–	–	–	Kd [1]: 258 nM and 234 nM and 267 nM
CCL24 (from UniProt O00175 27-119) (ligand)	46.6 nM and 88.7 nM and 70.7 nM	0.00131 s⁻¹ and 0.0022 s⁻¹ and 0.00184 s⁻¹	28200 M⁻¹ s⁻¹ and 24800 M⁻¹ s⁻¹ and 26000 M⁻¹ s⁻¹	28.1 nM	0.00111 s⁻¹	36000 M⁻¹ s⁻¹	68.6 nM	0.00179 s⁻¹	26000 M⁻¹ s⁻¹	23.6 nM and 30.9 nM and 29.7 nM	0.00111 s⁻¹ and 0.000885 s⁻¹ and 0.000951 s⁻¹	697 nM and 394 nM and 252 nM	19.3 nM and 20.8 nM and 19.7 nM	0.000922 s⁻¹ and 0.00125 s⁻¹ and 0.000564 s⁻¹	47700 M⁻¹ s⁻¹ and 60300 M⁻¹ s⁻¹ and 28700 M⁻¹ s⁻¹	19.9 nM	0.00091 s⁻¹	46000 M⁻¹ s⁻¹	9.58 nM	0.00121 s⁻¹	kon [5]: 47000 M⁻¹ s⁻¹ and 28600 M⁻¹ s⁻¹ and 32100 M⁻¹ s⁻¹; kon [6]: 23800 M⁻¹ s⁻¹ and 14800 M⁻¹ s⁻¹ and 14400 M⁻¹ s⁻¹; kon [9]: 111000 M⁻¹ s⁻¹; Kd [10]: 447 nM; koff [10]: 0.00869 s⁻¹; kon [10]: 18000 M⁻¹ s⁻¹; Kd [11]: 9.33 nM and 9.02 nM and 10.4 nM; koff [11]: 0.000856 s⁻¹ and 0.0013 s⁻¹ and 0.00101 s⁻¹; kon [11]: 91800 M⁻¹ s⁻¹ and 144000 M⁻¹ s⁻¹ and 96500 M⁻¹ s⁻¹
CCL3 (from UniProt P10147 24-92) (ligand)	1.2 nM and 0.464 nM	0.000428 s⁻¹ and 0.000445 s⁻¹ and 0.000452 s⁻¹	357000 M⁻¹ s⁻¹ and 369000 M⁻¹ s⁻¹ and 973000 M⁻¹ s⁻¹	1.77 nM	0.00058 s⁻¹	345000 M⁻¹ s⁻¹	0.95 nM	0.00044 s⁻¹	566000 M⁻¹ s⁻¹	1.67 nM and 1.95 nM and 1.68 nM	0.000578 s⁻¹ and 0.000636 s⁻¹ and 0.00061 s⁻¹	36.6 nM and 43.3 nM and 41.1 nM	2.89 nM and 3.24 nM and 3.57 nM	0.00144 s⁻¹ and 0.00146 s⁻¹ and 0.00142 s⁻¹	498000 M⁻¹ s⁻¹ and 452000 M⁻¹ s⁻¹ and 397000 M⁻¹ s⁻¹	3.23 nM	0.00144 s⁻¹	449000 M⁻¹ s⁻¹	0.32 nM	0.0004 s⁻¹	kon [5]: 345000 M⁻¹ s⁻¹ and 326000 M⁻¹ s⁻¹ and 363000 M⁻¹ s⁻¹; kon [9]: 1.22e+06 M⁻¹ s⁻¹; Kd [10]: 40.3 nM; koff [10]: 0.0464 s⁻¹; kon [10]: 1.08e+06 M⁻¹ s⁻¹; Kd [11]: 0.356 nM and 0.205 nM and 0.394 nM; koff [11]: 0.000296 s⁻¹ and 0.000365 s⁻¹ and 0.000413 s⁻¹; kon [11]: 831000 M⁻¹ s⁻¹ and 1.78e+06 M⁻¹ s⁻¹ and 1.05e+06 M⁻¹ s⁻¹
CCL26 (from UniProt Q9Y258 24-94) (ligand)	3.9 nM and 3.21 nM and 1.71 nM	0.00136 s⁻¹ and 0.000659 s⁻¹ and 0.00101 s⁻¹	348000 M⁻¹ s⁻¹ and 205000 M⁻¹ s⁻¹ and 590000 M⁻¹ s⁻¹	1.89 nM	0.00048 s⁻¹	357000 M⁻¹ s⁻¹	2.94 nM	0.00101 s⁻¹	381000 M⁻¹ s⁻¹	1.25 nM and 1.65 nM and 2.78 nM	0.000481 s⁻¹ and 0.000673 s⁻¹ and 0.000777 s⁻¹	56.4 nM and 69.6 nM and 86.6 nM	9.99 nM and 8.95 nM and 8.79 nM	0.000506 s⁻¹ and 0.000395 s⁻¹ and 0.000556 s⁻¹	50600 M⁻¹ s⁻¹ and 44200 M⁻¹ s⁻¹ and 63300 M⁻¹ s⁻¹	9.24 nM	0.00049 s⁻¹	53000 M⁻¹ s⁻¹	0.19 nM	0.00078 s⁻¹	kon [5]: 384000 M⁻¹ s⁻¹ and 407000 M⁻¹ s⁻¹ and 280000 M⁻¹ s⁻¹; koff [6]: 0.00101 s⁻¹ and 0.000925 s⁻¹ and 0.00104 s⁻¹; kon [6]: 17900 M⁻¹ s⁻¹ and 13300 M⁻¹ s⁻¹ and 12000 M⁻¹ s⁻¹; kon [9]: 2.63e+06 M⁻¹ s⁻¹; Kd [10]: 70.9 nM; koff [10]: 0.00099 s⁻¹; kon [10]: 14000 M⁻¹ s⁻¹; Kd [11]: 0.183 nM and 0.176 nM and 0.197 nM; koff [11]: 0.000504 s⁻¹ and 0.000271 s⁻¹ and 0.000714 s⁻¹; kon [11]: 2.75e+06 M⁻¹ s⁻¹ and 1.53e+06 M⁻¹ s⁻¹ and 3.62e+06 M⁻¹ s⁻¹
CCL11 (from UniProt P51671 24-97) (ligand)	1.67 nM and 1.9 nM and 1.61 nM	0.00144 s⁻¹ and 0.00137 s⁻¹ and 0.00169 s⁻¹	862000 M⁻¹ s⁻¹ and 719000 M⁻¹ s⁻¹ and 1.05e+06 M⁻¹ s⁻¹	487 nM	0.0537 s⁻¹	101000 M⁻¹ s⁻¹	1.73 nM	0.0015 s⁻¹	877000 M⁻¹ s⁻¹	481 nM and 474 nM and 507 nM	0.0537 s⁻¹ and 0.0345 s⁻¹ and 0.0604 s⁻¹	842 nM and 836 nM and 312 nM	750 nM and 383 nM and 390 nM	0.264 s⁻¹ and 0.203 s⁻¹ and 0.187 s⁻¹	352000 M⁻¹ s⁻¹ and 531000 M⁻¹ s⁻¹ and 480000 M⁻¹ s⁻¹	507 nM	0.218 s⁻¹	454000 M⁻¹ s⁻¹	3.32 nM	0.00372 s⁻¹	kon [5]: 112000 M⁻¹ s⁻¹ and 72900 M⁻¹ s⁻¹ and 119000 M⁻¹ s⁻¹; kon [9]: 1.4e+06 M⁻¹ s⁻¹; Kd [10]: 663 nM; koff [10]: 0.196 s⁻¹; kon [10]: 236000 M⁻¹ s⁻¹; Kd [11]: 3.46 nM and 2.95 nM and 3.55 nM; koff [11]: 0.00417 s⁻¹ and 0.00433 s⁻¹ and 0.00541 s⁻¹; kon [11]: 1.2e+06 1/(M s) and 1.5e+06 1/(M s) (2×)
CCL5 (from UniProt P13501 24-91) (ligand)	0.145 nM and 0.294 nM and 0.251 nM	0.000189 s⁻¹ and 0.000193 s⁻¹ and 0.000245 s⁻¹	1.31e+06 M⁻¹ s⁻¹ and 658000 M⁻¹ s⁻¹ and 976000 M⁻¹ s⁻¹	1.03 nM	0.00033 s⁻¹	354000 M⁻¹ s⁻¹	0.23 nM	0.00021 s⁻¹	981000 M⁻¹ s⁻¹	0.973 nM and 1.11 nM and 1 nM	0.000331 s⁻¹ and 0.000413 s⁻¹ and 0.00035 s⁻¹	15.9 nM and 16.3 nM and 16 nM	2.42 nM (2×) and 2.72 nM	0.00208 s⁻¹ and 0.00189 s⁻¹ and 0.00187 s⁻¹	860000 M⁻¹ s⁻¹ and 783000 M⁻¹ s⁻¹ and 688000 M⁻¹ s⁻¹	2.52 nM	0.00195 s⁻¹	777000 M⁻¹ s⁻¹	< 0.1 nM	< 0.0001 s⁻¹	kon [5]: 340000 M⁻¹ s⁻¹ and 372000 M⁻¹ s⁻¹ and 348000 M⁻¹ s⁻¹; koff [6]: 0.0113 s⁻¹ and 0.012 s⁻¹ and 0.0111 s⁻¹; kon [6]: 712000 M⁻¹ s⁻¹ and 738000 M⁻¹ s⁻¹ and 697000 M⁻¹ s⁻¹; kon [9]: 1.53e+06 M⁻¹ s⁻¹; Kd [10]: 16 nM; koff [10]: 0.0115 s⁻¹; kon [10]: 716000 M⁻¹ s⁻¹; Kd [11]: 0.0849 nM and 0.0557 nM and 0.0372 nM; koff [11]: 9.49e-05 s⁻¹ and 0.000111 s⁻¹ and 5.52e-05 s⁻¹; kon [11]: 1.12e+06 M⁻¹ s⁻¹ and 1.98e+06 M⁻¹ s⁻¹ and 1.48e+06 M⁻¹ s⁻¹
CCL13 (from UniProt Q99616 17-98) (ligand)	0.0154 nM and 0.0339 nM and 0.0439 nM	5.53e-05 s⁻¹ and 6.98e-05 s⁻¹ and 0.000105 s⁻¹	3.58e+06 M⁻¹ s⁻¹ and 2.06e+06 M⁻¹ s⁻¹ and 2.4e+06 M⁻¹ s⁻¹	1.42 nM	0.00063 s⁻¹	458000 M⁻¹ s⁻¹	< 0.1 nM	< 0.0001 s⁻¹	2.68e+06 M⁻¹ s⁻¹	1.4 nM (2×) and 1.45 nM	0.000625 s⁻¹ and 0.000669 s⁻¹ and 0.000651 s⁻¹	2.74 nM and 3.26 nM	0.298 nM and 0.304 nM and 0.285 nM	0.000931 s⁻¹ and 0.000845 s⁻¹ and 0.000833 s⁻¹	3.12e+06 M⁻¹ s⁻¹ and 2.78e+06 M⁻¹ s⁻¹ and 2.92e+06 M⁻¹ s⁻¹	0.3 nM	0.00087 s⁻¹	2.94e+06 M⁻¹ s⁻¹	< 0.1 nM	< 0.0001 s⁻¹	kon [5]: 448000 M⁻¹ s⁻¹ and 461000 M⁻¹ s⁻¹ and 466000 M⁻¹ s⁻¹; koff [6]: 0.00454 s⁻¹ and 0.00359 s⁻¹; kon [6]: 1.66e+06 M⁻¹ s⁻¹ and 1.1e+06 M⁻¹ s⁻¹; kon [9]: 3.26e+06 M⁻¹ s⁻¹; Kd [10]: 2.91 nM; koff [10]: 0.00423 s⁻¹; kon [10]: 1.47e+06 M⁻¹ s⁻¹; Kd [11]: 0.0116 nM and 0.0158 nM and 0.035 nM; kon [11]: 2.5e+06 M⁻¹ s⁻¹ and 4.09e+06 M⁻¹ s⁻¹ and 3.18e+06 M⁻¹ s⁻¹
CCL4 (from UniProt P13236 24-92) (ligand)	0.753 nM and 0.7 nM and 0.513 nM	0.000169 s⁻¹ and 0.000191 s⁻¹ and 0.000236 s⁻¹	224000 M⁻¹ s⁻¹ and 273000 M⁻¹ s⁻¹ and 460000 M⁻¹ s⁻¹	8.56 nM	0.00087 s⁻¹	165000 M⁻¹ s⁻¹	0.66 nM	0.0002 s⁻¹	319000 M⁻¹ s⁻¹	4.06 nM and 17.6 nM and 4.03 nM	0.000873 s⁻¹ and 0.000943 s⁻¹ and 0.00091 s⁻¹	70.8 nM and 65.2 nM and 78.1 nM	4.26 nM and 4.21 nM and 6.38 nM	0.00229 s⁻¹ and 0.00217 s⁻¹ and 0.00209 s⁻¹	538000 M⁻¹ s⁻¹ and 516000 M⁻¹ s⁻¹ and 328000 M⁻¹ s⁻¹	4.95 nM	0.00218 s⁻¹	461000 M⁻¹ s⁻¹	0.3 nM	0.00023 s⁻¹	koff [6]: 0.0133 s⁻¹ and 0.0132 s⁻¹ and 0.0382 s⁻¹; kon [6]: 188000 M⁻¹ s⁻¹ and 202000 M⁻¹ s⁻¹ and 489000 M⁻¹ s⁻¹; kon [9]: 805000 M⁻¹ s⁻¹; Kd [10]: 71.3 nM; koff [10]: 0.0215 s⁻¹; kon [10]: 293000 M⁻¹ s⁻¹; Kd [11]: 0.291 nM and 0.278 nM and 0.333 nM; koff [11]: 0.000211 s⁻¹ and 0.000223 s⁻¹ and 0.000297 s⁻¹; kon [11]: 724000 M⁻¹ s⁻¹ and 801000 M⁻¹ s⁻¹ and 890000 M⁻¹ s⁻¹
CCL19 (from UniProt Q99731 22-98) (ligand)	0.676 nM and 0.642 nM and 0.935 nM	0.000322 s⁻¹ and 0.000363 s⁻¹ and 0.000401 s⁻¹	477000 M⁻¹ s⁻¹ and 566000 M⁻¹ s⁻¹ and 428000 M⁻¹ s⁻¹	0.16 nM	3e-05 s⁻¹	144000 M⁻¹ s⁻¹	0.75 nM	0.00036 s⁻¹	490000 M⁻¹ s⁻¹	0.209 nM and 0.0874 nM and 0.187 nM	3.17e-05 s⁻¹ and 1.17e-05 s⁻¹ and 2.75e-05 s⁻¹	13.2 nM and 15.6 nM and 19.7 nM	1.34 nM and 1.49 nM and 1.92 nM	0.000471 s⁻¹ and 0.000557 s⁻¹ and 0.000576 s⁻¹	352000 M⁻¹ s⁻¹ and 373000 M⁻¹ s⁻¹ and 301000 M⁻¹ s⁻¹	1.58 nM	0.00053 s⁻¹	342000 M⁻¹ s⁻¹	1.34 nM	0.00036 s⁻¹	kon [5]: 151000 M⁻¹ s⁻¹ and 134000 M⁻¹ s⁻¹ and 147000 M⁻¹ s⁻¹; kon [9]: 278000 M⁻¹ s⁻¹; Kd [10]: 16.1 nM; koff [10]: 0.00345 s⁻¹; kon [10]: 245000 M⁻¹ s⁻¹; Kd [11]: 1.4 nM and 1 nM and 1.62 nM; koff [11]: 0.000327 s⁻¹ and 0.000349 s⁻¹ and 0.000407 s⁻¹; kon [11]: 233000 M⁻¹ s⁻¹ and 348000 M⁻¹ s⁻¹ and 252000 M⁻¹ s⁻¹
